Reference: article PMC3307385

Biological target: mouse soluble recombinant SLLP1 (mouse) (UniProt Q9D9X8)
Experiment: SPR

Chain of UniProt Q9D9X8 (Q9D9X8 95-221): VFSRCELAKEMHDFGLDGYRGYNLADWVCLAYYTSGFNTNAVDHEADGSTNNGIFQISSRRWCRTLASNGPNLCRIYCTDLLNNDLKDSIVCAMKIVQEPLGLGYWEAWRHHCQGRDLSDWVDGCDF

Question: For “recombinant mouse SAS1B (V2), full length doublet (~51, ~50 kD) (natural protein)”, which Kd is on record?
Answer: 0.32 nM
